Values of other authors as cited in patent US20220347322A1, “METHOD OF TREATING ARTERIOVENOUS MALFORMATIONS BY TARGETING THE EPHRIN PATHWAY” (THE REGENTS OF THE UNIVERSITY OF CALIFORNIA, priority 2019, published 2022).

Tested on: EphB4 signaling
Settings: in mice; cited reference 38; cited from earlier work

B1: sEphB4: The soluble extracellular domain of EphB4; pharmacological inhibitor of EphB4 signaling (protein, UniProt P54760 16-539, looked up)
extracellular domain: LEETLLNTKLETADLKWVTFPQVDGQWEELSGLDEEQHSVRTYEVCDVQRAPGQAHWLRTGWVPRRGAVHVYATLRFTMLECLSLPRAGRSCKETFTVFYYESDADTATALTPAWMENPYIKVDTVAAEHLTRKRPGAEATGKVNVKTLRLGPLSKAGFYLAFQDQGACMALLSLHLFYKKCAQLTVNLTRFPETVPRELVVPVAGSCVVDAVPAPGPSPSLYCREDGQWAEQPVTGCSCAPGFEAAEGNTKCRACAQGTFKPLSGEGSCQPCPANSHSNTIGSAVCQCRVGYFRARTDPRGAPCTTPPSAPRSVVSRLNGSSLHLEWSAPLESGGREDLTYALRCRECRPGGSCAPCGGDLTFDPGPRDLVEPWVVVRGLRPDFTYTFEVTALNGVSSLATGPVPFEPVNVTTDREVPPAVSDIRVTRSSPSSLSLAWAVPRAPSGAVLDYEVKYHEKGAEGPSSVRFLKTSENRAELRGLKRGASYLVQVRARSEAGYGPFGQEHHSQTQLDESEGWREQLA
modifications: extracellular domain
  inhibition of EphB4 signaling: completely inhibits EphB4 signaling
